Laboratory results reported in patent publication US20210063414A1, “METHODS FOR PREVENTING AND/OR TREATING BONE LOSS CONDITIONS BY MODULATING IRISIN” (Dana-Farber Cancer Institute, Inc., priority 2018, published 2021).

Molecular target: T1, MLO-Y4 cell surface proteins (Mus musculus, UniProt E9Q9D8)
T1 construct: endogenous in cells; host or cells: MLO-Y4
T1 sequence (E9Q9D8 1-996): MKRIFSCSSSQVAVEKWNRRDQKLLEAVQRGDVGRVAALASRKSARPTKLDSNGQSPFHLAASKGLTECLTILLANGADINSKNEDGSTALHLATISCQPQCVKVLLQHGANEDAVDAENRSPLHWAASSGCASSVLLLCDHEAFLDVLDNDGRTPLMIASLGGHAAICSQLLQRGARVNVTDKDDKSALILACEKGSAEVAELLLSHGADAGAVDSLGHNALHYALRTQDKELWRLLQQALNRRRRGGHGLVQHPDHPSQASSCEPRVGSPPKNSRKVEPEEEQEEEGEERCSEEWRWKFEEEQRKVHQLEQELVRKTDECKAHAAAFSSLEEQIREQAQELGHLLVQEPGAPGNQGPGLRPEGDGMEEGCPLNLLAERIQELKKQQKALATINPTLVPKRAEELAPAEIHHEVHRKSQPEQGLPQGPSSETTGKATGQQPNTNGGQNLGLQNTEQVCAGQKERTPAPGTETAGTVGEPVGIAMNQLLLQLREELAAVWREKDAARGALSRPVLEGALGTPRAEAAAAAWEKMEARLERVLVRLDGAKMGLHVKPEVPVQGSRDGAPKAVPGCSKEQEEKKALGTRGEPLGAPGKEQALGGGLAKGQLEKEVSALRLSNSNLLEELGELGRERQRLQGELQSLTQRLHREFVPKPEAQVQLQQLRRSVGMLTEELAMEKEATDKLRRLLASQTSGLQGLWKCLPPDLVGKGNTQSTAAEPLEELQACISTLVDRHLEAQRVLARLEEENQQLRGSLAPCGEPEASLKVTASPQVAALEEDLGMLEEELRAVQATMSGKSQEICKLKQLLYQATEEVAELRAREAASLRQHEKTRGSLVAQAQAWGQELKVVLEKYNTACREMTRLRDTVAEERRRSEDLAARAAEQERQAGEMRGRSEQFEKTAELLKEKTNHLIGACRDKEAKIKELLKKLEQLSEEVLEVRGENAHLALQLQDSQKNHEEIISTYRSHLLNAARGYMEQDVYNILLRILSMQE
Test: Crosslinking/co-immunoprecipitation/mass spectrometry (TMT quantitative proteomics) to identify irisin receptors
Assay type: binding
Details: co-precipitated protein Ankrd35 (E9Q9D8_MOUSE)
How it was run: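 Mouse MLO-Y4 cells were switched to serum-free FreeStyle medium for 4 h, chilled, then exposed to 10 nM His-tagged irisin (or adipsin as control) for 20 min. Cells were crosslinked with 1.5 mM DTSSP (30 min, ice), and bound proteins were pulled down on Ni-NTA and eluted with 250 mM imidazole. Eluates were separated by SDS-PAGE, trypsin-digested in gel, TMT 6-plex labelled and quantified by MS3-based LC-MS/MS on an Orbitrap Fusion Lumos.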

TMT signal-to-noise ratio: 314.798
Substance: adipsin
